The source of these data is PMC11469336.

This assay addresses ribosomes (crude ribosome pellet). Nature of the assay: co-sedimentation.

“trimeric SEC61 complex (from UniProt P61619 1-476; P60468 1-96; P60059 1-68)” yielded a half-time of dissociation after harringtonine (in wild-type cells) of 15 min and a half-time of dissociation after puromycin (in wild-type cells) of 1 min.
